Experimental findings from the RNAGym collection of RNA variant scans (doi:10.1073/pnas.2313332121) are described below.

B1: TPR t1 (parent)
chain: GACCAAUCUGCCCUCAGAGCUCGAGAACAUCUUCGGAUGCAGAGGAGGCAGGCUUCGGUGGCGCGAUAGCGCCAACGUCCUCAACCUCCAAUGCAUCCCACCACAUGAUGAUGCCUGAAGAGCCUUGGUUUUUUG

The variants in the data set derive from B1. The data set can be described thus: polymerase ribozyme fitness, log enrichment relative to wild type (log ratio); higher = more active; in vitro selection for triplet polymerase activity. The essentials:
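Genotype fitness is the logarithm of its enrichment divided by wild-type enrichment, using inverse-variance-weighted averages of replicates. That logarithm is base 2. Enrichment was measured by Illumina sequencing of input and output libraries from one triplicate in vitro selection round, with frozen incubation at −7 °C, on PCR-built, transcribed mutant libraries of each subunit of a heterodimeric triplet polymerase ribozyme, retaining genotypes with ≥10 input reads and ≥1 read per output.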
As to C13A A24G U32C C94U C104U G120A, the “polymerase ribozyme fitness (log ratio)” value is -1.91. Next, C12G G39A C89A U106C: -2.19; C12G U92C G120U: 1.41; C13G A37U U38C: -2.77. Next, C12U U14A C88G: -1.12; C12U U78A A108U G120C: -5.26; C13G A41U C56U A121G: 0.91.

As to C13A C70G C98U G120A, the “polymerase ribozyme fitness (log ratio)” value was -2.39. Regarding C13A A18G C98G G120C, the “polymerase ribozyme fitness (log ratio)” value is -1.26. Next, C12U C72U U130G: -0.295; C12U C99U: -2.6; C12U G47U C85U U129G: -3.07. Consider C12G U14G A24G C49A G61U G77U C104U, for which the “polymerase ribozyme fitness (log ratio)” value was -6.42.

As for C12U U32C U81A U112A, the “polymerase ribozyme fitness (log ratio)” value is 0.32.

For the variant C13A A16U G120C, the “polymerase ribozyme fitness (log ratio)” value is -0.322. Next, C12U G128A: -1.59. As for C13A U92C, the “polymerase ribozyme fitness (log ratio)” value was -3.57. Next, C13A G63U U112C: -1.77; C12U C13G C70G: -2.49.

Regarding C12U G120U, the “polymerase ribozyme fitness (log ratio)” value was 2.06. Next, C13A U81A C88U G110A A121C: -2.71. Turning to C13A C53A G120U U132C, the “polymerase ribozyme fitness (log ratio)” value was -0.539. Next, C12G G19A G63U C79G U81G U112C G117U: -7.76. Next, C12U A27C C62A A83U: -6.02; C12G A29U A46U C124A: -1.77; C12G A41C C82U: -0.401. Consider C12G C62U A75C A108G, for which the “polymerase ribozyme fitness (log ratio)” value is -2.34.

Take C12U C13U: the “polymerase ribozyme fitness (log ratio)” value was -0.904.

For the variant C13A A43C C101A A111C, the “polymerase ribozyme fitness (log ratio)” value was -6.5. Next, C13A C53G U54A G117C: -4.98. Next, C13A G71A: -0.843. As for C13G A100C, the “polymerase ribozyme fitness (log ratio)” value is -3.31. C13A G69U C72A G113A: the “polymerase ribozyme fitness (log ratio)” value is -1.88.

On to C12U G39A C72G C85U, for which the “polymerase ribozyme fitness (log ratio)” value was -1.34. For the variant C13A C15G A37U A103C, the “polymerase ribozyme fitness (log ratio)” value was -6.73. Next, C12U A18G C20U C94U G117U: 0.203; C13A G122A: -2.07; C12U A119C A121C: -2.21. C12U C62G G122U: the “polymerase ribozyme fitness (log ratio)” value is -0.331. Next, C13A G35A C124G: -3.52. Next, C12U A50U: -1.64; C12U U21A A29G G63A: -2.72; C12U A27G C40U C56U C86U C102U: -3.62. C12G A41U A83U G113C: the “polymerase ribozyme fitness (log ratio)” value is -3.27. Next, C12G C15A U78A: -2.34; C12U C76U: -0.504. Turning to C12U G45A G48A, the “polymerase ribozyme fitness (log ratio)” value was -0.563.

Consider C12U A16G C20U C64A A84U U112G G113U, for which the “polymerase ribozyme fitness (log ratio)” value is -7.14. In the case of C12A U96A A121G, the “polymerase ribozyme fitness (log ratio)” value was -0.355.

C13A C88A: the “polymerase ribozyme fitness (log ratio)” value is -2.19.

Take C13A U112G A121G: the “polymerase ribozyme fitness (log ratio)” value is -1.42. Next, C12G C15A A108G A111C: -4.53.

As for C12U G36U, the “polymerase ribozyme fitness (log ratio)” value was -0.34. C12U G122A: the “polymerase ribozyme fitness (log ratio)” value is -0.00508.

Regarding C12G C34G C114A, the “polymerase ribozyme fitness (log ratio)” value is -6.75. Next, C13A A46G G63C: -2.95; C12G C28U G36U G60A A83C C97U: -3.31; C13A A18U C53U: -3.95. For C12G U33G, the “polymerase ribozyme fitness (log ratio)” value is -4.76. For the variant C12G A103U, the “polymerase ribozyme fitness (log ratio)” value is -4.83. As to C12G G113A, the “polymerase ribozyme fitness (log ratio)” value is -0.4. Next, C12G C15U C56U G77C A83C C88A U106A U132A: -3.55; C13A C72U A83C A84G U112C: -1.46. For the variant C12U C13A C72G U78C, the “polymerase ribozyme fitness (log ratio)” value is -1.57. As for C12U G63U, the “polymerase ribozyme fitness (log ratio)” value was -0.968.

As for C12U G60U, the “polymerase ribozyme fitness (log ratio)” value amounted to 0.415. Next, C12G C28U: -0.928; C12G G61C: -0.968; C12A U54A G113C U125G: -3.66. In the case of C12U C49U C97U, the “polymerase ribozyme fitness (log ratio)” value is -1.6. Next, C12G A43G: -1.17; C12U A16G C73U C102A: -1.8. Next, C13A A41G G69A: -5.37; C12U C86U A103U A111U: -4.99; C12G C20G C79U C82U A91U G107C G117A: -4. Consider C12G U96G G117U, for which the “polymerase ribozyme fitness (log ratio)” value was -2.18. Next, C12G A46G G63A C115G: -6.03. Next, C13G A41U C72G C101U: -3.53; C12U A74U C80A C97U A121G U133A: -0.836. Next, C12U G39U G63U G77C: -3.85; C12U A37U C85U G93C G120A: 0.532; C13A C72G C82A C94U G110A: -3.05. Regarding C12U C34G G127A, the “polymerase ribozyme fitness (log ratio)” value is -6.04. Take C12G U55C C88A C104G G113A C123G C124A: the “polymerase ribozyme fitness (log ratio)” value is -6.5.
